From PMC9482650, “Quantitative fragmentomics allow affinity mapping of interactomes” (Nature Communications, 2022)

Key:
Test in all cases: holdup assay
Set-up in all cases: key: below the threshold = too weak to quantify, mostly under pKd 3.1 to 4
[1] = molecular target: DLG1_1, Q12959
[2] = molecular target: T1, LNX2_3, Q8N448
T1 sequence (Q8N448 463-564, limits assumed, looked up): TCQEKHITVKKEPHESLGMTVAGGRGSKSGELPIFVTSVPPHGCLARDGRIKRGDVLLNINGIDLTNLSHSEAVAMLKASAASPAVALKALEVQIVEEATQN

[3] = molecular target: T2, DVL3, Q92997
T2 sequence (Q92997 244-331, limits assumed, looked up): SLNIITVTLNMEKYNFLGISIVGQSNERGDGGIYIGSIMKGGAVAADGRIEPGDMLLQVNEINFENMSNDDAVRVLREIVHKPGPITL

[4] = molecular target: T3, APBA1_1, Q02410
T3 sequence (Q02410 651-752, limits assumed, looked up): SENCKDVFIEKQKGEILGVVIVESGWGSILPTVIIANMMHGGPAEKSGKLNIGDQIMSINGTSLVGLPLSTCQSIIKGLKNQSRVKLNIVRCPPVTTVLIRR

[5] = molecular target: T4, LIN7C, Q9NUP9
T4 sequence (Q9NUP9 88-185, limits assumed, looked up): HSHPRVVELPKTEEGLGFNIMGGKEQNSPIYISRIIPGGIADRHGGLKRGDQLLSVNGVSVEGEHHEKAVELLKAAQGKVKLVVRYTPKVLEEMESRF

[6] = molecular target: GRIP2_7, Q9C0E4
GRIP2_7, Q9C0E4, sequence (Q9C0E4 934-1023): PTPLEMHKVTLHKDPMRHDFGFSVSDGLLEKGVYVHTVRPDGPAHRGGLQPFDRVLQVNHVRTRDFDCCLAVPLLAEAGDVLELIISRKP

[7] = molecular target: T5, APBA1_2, Q02410
T5 sequence (Q02410 742-832, limits assumed, looked up): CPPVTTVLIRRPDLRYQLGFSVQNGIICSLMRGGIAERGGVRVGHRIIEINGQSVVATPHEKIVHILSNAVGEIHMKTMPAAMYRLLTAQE

[8] = molecular target: LIMK2, P53671
LIMK2, P53671, sequence (P53671 143-248): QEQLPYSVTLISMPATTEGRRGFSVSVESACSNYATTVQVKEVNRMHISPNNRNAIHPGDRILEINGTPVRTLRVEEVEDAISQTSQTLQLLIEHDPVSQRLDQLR

[9] = molecular target: Inadl_10, Q8NI35
Inadl_10, Q8NI35, sequence (Q8NI35 1673-1763): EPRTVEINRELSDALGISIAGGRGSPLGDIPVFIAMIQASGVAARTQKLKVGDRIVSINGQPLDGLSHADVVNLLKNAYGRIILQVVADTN

[10] = molecular target: PTPN3, P26045
PTPN3, P26045, sequence (P26045 505-587): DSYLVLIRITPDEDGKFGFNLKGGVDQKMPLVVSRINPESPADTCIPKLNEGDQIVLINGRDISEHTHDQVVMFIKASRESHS

[11] = molecular target: T6, SNTG1, Q9NSN8
T6 sequence (Q9NSN8 52-150, limits assumed, looked up): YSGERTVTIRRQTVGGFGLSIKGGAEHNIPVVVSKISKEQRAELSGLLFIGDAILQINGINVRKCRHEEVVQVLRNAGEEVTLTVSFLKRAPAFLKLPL

[12] = molecular target: DLG4_1, P78352
DLG4_1, P78352, sequence (P78352 62-152): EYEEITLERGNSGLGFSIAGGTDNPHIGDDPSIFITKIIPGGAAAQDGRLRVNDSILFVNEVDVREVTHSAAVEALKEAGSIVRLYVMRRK

[13] = molecular target: SCRIB_2, Q14160
SCRIB_2, Q14160, sequence (Q14160 857-960): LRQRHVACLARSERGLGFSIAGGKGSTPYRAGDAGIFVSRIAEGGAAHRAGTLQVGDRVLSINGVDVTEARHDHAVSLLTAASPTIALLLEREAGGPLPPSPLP

[14] = molecular target: NHERF4_4, Q86UT5
NHERF4_4, Q86UT5, sequence (Q86UT5 464-550): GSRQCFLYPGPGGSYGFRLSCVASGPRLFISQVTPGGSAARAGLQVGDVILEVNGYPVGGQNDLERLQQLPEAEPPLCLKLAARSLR

[15] = molecular target: T7, GRIP1_5, Q9Y3R0
T7 sequence (Q9Y3R0 568-668, limits assumed, looked up): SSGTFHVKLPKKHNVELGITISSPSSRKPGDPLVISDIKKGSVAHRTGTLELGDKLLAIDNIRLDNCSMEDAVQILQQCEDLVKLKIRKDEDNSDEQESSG

[16] = molecular target: FRMPD2_1, Q68DX3
FRMPD2_1, Q68DX3, sequence (Q68DX3 770-861): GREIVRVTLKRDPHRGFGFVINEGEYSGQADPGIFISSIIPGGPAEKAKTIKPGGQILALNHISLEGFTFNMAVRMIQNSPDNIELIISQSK

[17] = molecular target: T8, MPDZ_12, O75970
T8 sequence (O75970 1857-1958, limits assumed, looked up): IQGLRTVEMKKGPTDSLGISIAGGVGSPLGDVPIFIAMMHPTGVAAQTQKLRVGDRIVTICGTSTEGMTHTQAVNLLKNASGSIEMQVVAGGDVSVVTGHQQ

[18] = molecular target: T9, NHERF3_4, Q5T2W1
T9 sequence (Q5T2W1 373-468, limits assumed, looked up): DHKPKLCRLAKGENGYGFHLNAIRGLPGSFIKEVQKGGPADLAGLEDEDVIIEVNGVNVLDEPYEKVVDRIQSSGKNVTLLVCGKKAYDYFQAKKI

[19] = molecular target: GIPC2, Q8TF65
GIPC2, Q8TF65, sequence (Q8TF65 112-203): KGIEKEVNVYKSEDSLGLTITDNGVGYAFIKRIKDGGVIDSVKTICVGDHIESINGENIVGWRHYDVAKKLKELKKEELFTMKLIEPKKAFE

[20] = molecular target: GRIP2_4, Q9C0E4
GRIP2_4, Q9C0E4, sequence (Q9C0E4 446-548): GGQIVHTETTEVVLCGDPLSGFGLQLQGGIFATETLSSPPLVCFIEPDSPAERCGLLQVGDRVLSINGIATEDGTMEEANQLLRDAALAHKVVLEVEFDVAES

[21] = molecular target: IL16_3, Q14005
IL16_3, Q14005, sequence (Q14005 1107-1207): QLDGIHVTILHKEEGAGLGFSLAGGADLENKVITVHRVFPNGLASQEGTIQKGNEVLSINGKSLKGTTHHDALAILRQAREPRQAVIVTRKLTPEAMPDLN

[22] = molecular target: MAST2, Q6P0Q8
MAST2, Q6P0Q8, sequence (Q6P0Q8 1099-1202): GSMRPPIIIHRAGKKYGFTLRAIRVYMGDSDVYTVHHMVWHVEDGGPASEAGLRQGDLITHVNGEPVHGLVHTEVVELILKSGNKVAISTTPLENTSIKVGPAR

[23] = molecular target: DLG4_3, P78352
DLG4_3, P78352, sequence (P78352 306-403): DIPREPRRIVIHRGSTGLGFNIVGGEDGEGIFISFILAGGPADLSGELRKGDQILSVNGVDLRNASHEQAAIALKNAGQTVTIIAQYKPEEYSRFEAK

[24] = molecular target: Inadl_8, Q8NI35
Inadl_8, Q8NI35, sequence (Q8NI35 1425-1530): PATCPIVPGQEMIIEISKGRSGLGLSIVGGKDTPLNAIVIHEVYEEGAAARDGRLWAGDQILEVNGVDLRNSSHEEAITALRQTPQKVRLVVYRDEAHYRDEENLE

[25] = molecular target: GORASP2, Q9H8Y8
[26] = molecular target: T10, PDZD2_2, O15018
T10 sequence (O15018 329-429, limits assumed, looked up): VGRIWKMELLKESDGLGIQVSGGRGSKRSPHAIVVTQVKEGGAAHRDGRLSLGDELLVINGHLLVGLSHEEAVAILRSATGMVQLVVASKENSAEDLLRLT

[27] = molecular target: T11, SNTG2, Q9NY99
T11 sequence (Q9NY99 68-166, limits assumed, looked up): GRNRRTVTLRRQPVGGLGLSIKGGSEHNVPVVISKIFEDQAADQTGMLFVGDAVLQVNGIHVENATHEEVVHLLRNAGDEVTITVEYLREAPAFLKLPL

[28] = plain residues with an end cap or a label only (N-terminal biotin on a linker: ado-ado)
[29] = plain residues with an end cap or a label only (N-terminal biotin on a linker: (peg)3)

## EDPRVEVTQF [SLC22A9, Q8IVM8]
[1]; [28]
  pKd: below the threshold
[2]; [28]
  pKd: below the threshold
[3]; [28]
  pKd: below the threshold
[4]; [28]
  pKd: below the threshold
[5]; [28]
  pKd: below the threshold
[6]; [28]
  pKd: below the threshold
[7]; [28]
  pKd: below the threshold
[8]; [28]
  pKd: below the threshold
[9]; [28]
  pKd: below the threshold
[10]; [28]
  pKd: 4.18
[11]; [28]
  pKd: below the threshold
[12]; [28]
  pKd: below the threshold
[13]; [28]
  pKd: below the threshold
[14]; [28]
  pKd: below the threshold
[15]; [28]
  pKd: below the threshold
[16]; [28]
  pKd: below the threshold
[17]; [28]
  pKd: below the threshold
[18]; [28]
  pKd: 4.58
[19]; [28]
  pKd: below the threshold
[20]; [28]
  pKd: below the threshold
[21]; [28]
  pKd: below the threshold
[22]; [28]
  pKd: 5.4
[23]; [28]
  pKd: below the threshold
[24]; [28]
  pKd: below the threshold
[25]; [28]
  pKd: below the threshold
[26]; [28]
  pKd: below the threshold
[27]; [28]
  pKd: below the threshold

## QQSMSSADSTQA [SARS-Cov2-N, P0DTC9]
[1]; [29]
  pKd: below the threshold
[2]; [29]
  pKd: 3.88
[3]; [29]
  pKd: below the threshold
[4]; [29]
  pKd: below the threshold
[5]; [29]
  pKd: below the threshold
[6]; [29]
  pKd: below the threshold
[7]; [29]
  pKd: below the threshold
[8]; [29]
  pKd: below the threshold
[9]; [29]
  pKd: below the threshold
[10]; [29]
  pKd: below the threshold
[11]; [29]
  pKd: below the threshold
[12]; [29]
  pKd: below the threshold
[13]; [29]
  pKd: below the threshold
[14]; [29]
  pKd: below the threshold
[15]; [29]
  pKd: below the threshold
[16]; [29]
  pKd: below the threshold
[17]; [29]
  pKd: below the threshold
[18]; [29]
  pKd: below the threshold
[19]; [29]
  pKd: below the threshold
[20]; [29]
  pKd: below the threshold
[21]; [29]
  pKd: below the threshold
[22]; [29]
  pKd: below the threshold
[23]; [29]
  pKd: below the threshold
[24]; [29]
  pKd: below the threshold
[25]; [29]
  pKd: below the threshold
[26]; [29]
  pKd: below the threshold
[27]; [29]
  pKd: below the threshold

## DDASLPVSDV [PLEKHA1, Q9HB21]
[1]; [28]
  pKd: below the threshold
[2]; [28]
  pKd: below the threshold
[3]; [28]
  pKd: below the threshold
[4]; [28]
  pKd: below the threshold
[5]; [28]
  pKd: 4.01
[6]; [28]
  pKd: below the threshold
[7]; [28]
  pKd: 3.89
[8]; [28]
  pKd: below the threshold
[9]; [28]
  pKd: below the threshold
[10]; [28]
  pKd: 3.58
[11]; [28]
  pKd: 5.09
[12]; [28]
  pKd: below the threshold
[13]; [28]
  pKd: below the threshold
[14]; [28]
  pKd: below the threshold
[15]; [28]
  pKd: below the threshold
[16]; [28]
  pKd: below the threshold
[17]; [28]
  pKd: below the threshold
[18]; [28]
  pKd: below the threshold
[19]; [28]
  pKd: below the threshold
[20]; [28]
  pKd: below the threshold
[21]; [28]
  pKd: below the threshold
[22]; [28]
  pKd: 4.73
[23]; [28]
  pKd: below the threshold
[24]; [28]
  pKd: 4.94
[25]; [28]
  pKd: below the threshold
[26]; [28]
  pKd: 5.49
[27]; [28]
  pKd: 4.48

## PPGKHLVTEV [KCNA7, Q96RP8]
[1]; [28]
  pKd: 4.76
[2]; [28]
  pKd: below the threshold
[3]; [28]
  pKd: below the threshold
[4]; [28]
  pKd: below the threshold
[5]; [28]
  pKd: below the threshold
[6]; [28]
  pKd: below the threshold
[7]; [28]
  pKd: 4.17
[8]; [28]
  pKd: below the threshold
[9]; [28]
  pKd: 3.7
[10]; [28]
  pKd: 4.74
[11]; [28]
  pKd: 4.35
[12]; [28]
  pKd: 4.64
[13]; [28]
  pKd: 4.08
[14]; [28]
  pKd: below the threshold
[15]; [28]
  pKd: below the threshold
[16]; [28]
  pKd: below the threshold
[17]; [28]
  pKd: 3.88
[18]; [28]
  pKd: below the threshold
[19]; [28]
  pKd: below the threshold
[20]; [28]
  pKd: below the threshold
[21]; [28]
  pKd: below the threshold
[22]; [28]
  pKd: 5.21
[23]; [28]
  pKd: 4.16
[24]; [28]
  pKd: 3.98
[25]; [28]
  pKd: 4.39
[26]; [28]
  pKd: 4.62
[27]; [28]
  pKd: below the threshold

## ELSATVTTDC [TRIP6, Q15654]
[1]; [28]
  pKd: below the threshold
[2]; [28]
  pKd: below the threshold
[3]; [28]
  pKd: below the threshold
[4]; [28]
  pKd: below the threshold
[5]; [28]
  pKd: below the threshold
[6]; [28]
  pKd: below the threshold
[7]; [28]
  pKd: below the threshold
[8]; [28]
  pKd: below the threshold
[9]; [28]
  pKd: below the threshold
[10]; [28]
  pKd: 4.31
[11]; [28]
  pKd: 3.48
[12]; [28]
  pKd: below the threshold
[13]; [28]
  pKd: below the threshold
[14]; [28]
  pKd: below the threshold
[15]; [28]
  pKd: below the threshold
[16]; [28]
  pKd: below the threshold
[17]; [28]
  pKd: below the threshold
[18]; [28]
  pKd: below the threshold
[19]; [28]
  pKd: below the threshold
[20]; [28]
  pKd: below the threshold
[21]; [28]
  pKd: 3.59
[22]; [28]
  pKd: 4.9
[23]; [28]
  pKd: below the threshold
[24]; [28]
  pKd: 3.55
[25]; [28]
  pKd: below the threshold
[26]; [28]
  pKd: 4.2
[27]; [28]
  pKd: 3.79
